Data reported in the supplement of paper PMC10126150.
± gives the standard deviation of the averaged measurements.

test system: ATP; assay: switch fluorescence ratio, 500 uM ATP over buffer (Cy3 cluster intensity, sum of 5 cycles each) (fold (ratio)); higher = stronger signal-on switching upon ATP binding; sequences stand for … in TCGTCGGCAGCGTCAGATGTGTATAAGAGACAGTTTTTTTTTTTTTTTTTTTTTTTTT…TC; conditions: aptamer strand: ATP DNA aptamer (quencher-CACCTGGGGGAGTATTGCGGAGGAAGG + anchor), 100 nM annealed; ATP concentration: 500 uM
Method in brief: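 The quencher-labelled ATP aptamer, at 100 nM, was annealed to Cy3-labelled switching-strand clusters on a modified Illumina MiSeq flow-cell. The clusters were imaged in selection buffer, then after 15 min with 500 uM ATP at 22 °C, and this buffer/ATP cycle ran five times with NaOH stripping and re-annealing between runs. Per-cluster fluorescence ratios, summed target-cycle over summed buffer-cycle Cy3 intensity, were averaged per switch-domain sequence. Clusters outside 100-1000 RFU were excluded.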
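Further: ATP exposure 15 min at 22 °C before imaging.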

TTATCGCTTA and TTATCGGCCA are within error of each other in switch fluorescence ratio: 1.04 ± 0.098 for the first, 1 ± 0.067 for the second.

TTATCGGGGC and TTATCGGTTT are within error of each other in switch fluorescence ratio: 1 ± 0.025 for the first, 0.958 ± 0.019 for the second.

TTATCTAGCT and TTATCTAGGG are within error of each other in switch fluorescence ratio: 1.03 ± 0.023 for the first, 0.997 ± 0.041 for the second.

TTATCTCATT and TTATCTGGAT are the same in switch fluorescence ratio: 1 ± 0.028 for the first, 1 ± 0.022 for the second.

TTATCTGGGA and TTATCTGGGG are within error of each other in switch fluorescence ratio: 0.9995 ± 0.0079 for the first, 1.01 ± 0.055 for the second.

TTATCTTGTC and TTATCTTTGT are within error of each other in switch fluorescence ratio: 1.03 ± 0.072 for the first, 0.9758 ± 0.007 for the second.

TTATCTTTTT and TTATGACTCA are within error of each other in switch fluorescence ratio: 1 ± 0.032 for the first, 1.01 ± 0.03 for the second.

TTATGACTGT and TTATGAGGTG are within error of each other in switch fluorescence ratio: 1.015 ± 0.01 for the first, 1.08 ± 0.061 for the second.

TTATGATACG and TTATGATGAT are the same in switch fluorescence ratio: 1.01 ± 0.017 for the first, 1.006 ± 0.01 for the second.

TTATGATGGG and TTATGATTGG are within error of each other in switch fluorescence ratio: 0.99 ± 0.017 for the first, 0.987 ± 0.02 for the second.

TTATGCACGG and TTATGCACGT are within error of each other in switch fluorescence ratio: 1.01 ± 0.044 for the first, 1.04 ± 0.049 for the second.

Going from TTATGCAGGA to TTATGCAGGT, the switch fluorescence ratio rises from 0.955 ± 0.057 to 1.0341 ± 0.00034.

TTATGCATGA and TTATGGATAA are the same in switch fluorescence ratio: 1 ± 0.047 for the first, 1 ± 0.018 for the second.

TTATGGATTT and TTATGGGGTA are within error of each other in switch fluorescence ratio: 1.01 ± 0.037 for the first, 1.04 ± 0.049 for the second.

TTATGGGGTG and TTATGGGTCG are within error of each other in switch fluorescence ratio: 1.01 ± 0.027 for the first, 0.99 ± 0.034 for the second.

TTATGTCAGC and TTATGTCTTC are within error of each other in switch fluorescence ratio: 1.01 ± 0.023 for the first, 0.984 ± 0.026 for the second.

TTATGTGAGG and TTATGTGAGT are within error of each other in switch fluorescence ratio: 0.977 ± 0.034 for the first, 0.972 ± 0.0085 for the second.

TTATGTGCTG and TTATGTGGAG are within error of each other in switch fluorescence ratio: 1.02 ± 0.041 for the first, 0.974 ± 0.015 for the second.

TTATGTGGGA and TTATGTGGTA are within error of each other in switch fluorescence ratio: 0.975 ± 0.037 for the first, 1 ± 0.02 for the second.

Going from TTATGTGTTG to TTATGTTACT, the switch fluorescence ratio rises from 1.01 ± 0.011 to 1.059 ± 0.0023.

TTATGTTAGT and TTATTAAAGG are within error of each other in switch fluorescence ratio: 1.01 ± 0.056 for the first, 1.02 ± 0.071 for the second.

TTATTAAGAA and TTATTAAGAC are within error of each other in switch fluorescence ratio: 1.02 ± 0.063 for the first, 1 ± 0.032 for the second.

TTATTAGGGC and TTATTAGTCG are within error of each other in switch fluorescence ratio: 1 ± 0.083 for the first, 1.017 ± 0.0064 for the second.

TTATTATAAT and TTATTATGGC are within error of each other in switch fluorescence ratio: 0.982 ± 0.021 for the first, 0.993 ± 0.05 for the second.

TTATTATTAC and TTATTATTGT are within error of each other in switch fluorescence ratio: 1.04 ± 0.062 for the first, 0.982 ± 0.037 for the second.

TTATTGACAT and TTATTGACGC are within error of each other in switch fluorescence ratio: 0.995 ± 0.021 for the first, 0.937 ± 0.095 for the second.

TTATTGCACG and TTATTGCAGC are the same in switch fluorescence ratio: 1.07 ± 0.068 for the first, 1.07 ± 0.063 for the second.

First: TTATTGCCTT
Second: TTATTGCTTA
The switch fluorescence ratio of the first is higher: 1.03 ± 0.025 for the first, 0.97037 ± 0.00059 for the second.

TTATTGGAGA and TTATTGGAGC are within error of each other in switch fluorescence ratio: 0.996 ± 0.015 for the first, 0.981 ± 0.015 for the second.

TTATTGGTAT and TTATTGGTCC are within error of each other in switch fluorescence ratio: 0.998 ± 0.018 for the first, 0.989 ± 0.045 for the second.

TTATTGGTCG and TTATTGGTGG are within error of each other in switch fluorescence ratio: 1.02 ± 0.061 for the first, 0.966 ± 0.04 for the second.

TTATTGTGTG and TTATTGTGTT are within error of each other in switch fluorescence ratio: 1 ± 0.023 for the first, 1.01 ± 0.028 for the second.

TTATTTAAAT and TTATTTAGAG are within error of each other in switch fluorescence ratio: 1 ± 0.04 for the first, 0.985 ± 0.027 for the second.

TTATTTAGGT and TTATTTATAT are within error of each other in switch fluorescence ratio: 1.01 ± 0.043 for the first, 0.971 ± 0.013 for the second.

TTATTTATGC and TTATTTATTG are within error of each other in switch fluorescence ratio: 1.02 ± 0.055 for the first, 0.99 ± 0.016 for the second.

TTATTTGCGG and TTATTTGGAG are within error of each other in switch fluorescence ratio: 0.989 ± 0.025 for the first, 0.986 ± 0.025 for the second.

TTATTTGGGC and TTATTTGTCG are within error of each other in switch fluorescence ratio: 1.06 ± 0.081 for the first, 1.01 ± 0.019 for the second.

TTATTTTAGG and TTATTTTCTG are within error of each other in switch fluorescence ratio: 0.988 ± 0.044 for the first, 1 ± 0.014 for the second.

TTATTTTGTG and TTATTTTGTT are within error of each other in switch fluorescence ratio: 0.987 ± 0.035 for the first, 0.982 ± 0.034 for the second.

TTATTTTTTA and TTCAAATCGT are within error of each other in switch fluorescence ratio: 0.993 ± 0.028 for the first, 0.991 ± 0.013 for the second.

First: TTCAACTGGG
Second: TTCAAGCGCT
The switch fluorescence ratio of the first is higher: 1.104 ± 0.0025 for the first, 0.967 ± 0.019 for the second.

TTCAAGCTGA and TTCAAGGCAG are within error of each other in switch fluorescence ratio: 1.09 ± 0.069 for the first, 1.03 ± 0.043 for the second.

TTCAAGTAGT and TTCAAGTGTT are within error of each other in switch fluorescence ratio: 0.997 ± 0.02 for the first, 0.987 ± 0.029 for the second.

TTCAATAGGG and TTCAATATAG are within error of each other in switch fluorescence ratio: 1.02 ± 0.036 for the first, 1.21 ± 0.29 for the second.

TTCAATGTCA and TTCAATTGTG are within error of each other in switch fluorescence ratio: 0.99 ± 0.043 for the first, 0.9958 ± 0.0053 for the second.

TTCACGGGGG and TTCACGGTTC are the same in switch fluorescence ratio: 1.018 ± 0.0078 for the first, 1.02 ± 0.027 for the second.

First: TTCACTAGGT
Second: TTCACTCCGG
The switch fluorescence ratio of the first is lower: 1.01 ± 0.039 for the first, 1.2 ± 0.071 for the second.

TTCAGAGTTG and TTCAGATAGA are within error of each other in switch fluorescence ratio: 0.985 ± 0.095 for the first, 0.9875 ± 0.0037 for the second.

First: TTCAGATCCG
Second: TTCAGATGAA
The switch fluorescence ratio of the first is lower: 0.967 ± 0.0076 for the first, 0.9987 ± 0.0015 for the second.

TTCAGATTAC and TTCAGGAATG are within error of each other in switch fluorescence ratio: 1.04 ± 0.024 for the first, 1.01 ± 0.049 for the second.
